Here are results for two molecules from patent publication US20120207760A1 (THERACLONE SCIENCES, published 2012).

The target of assay [1] is T1, hemagglutinin (HA) of influenza A/Solomon Islands/3/06 H1N1 (Influenza A virus A/Solomon …). Put plainly: ELISA, inactivated whole virions coated; transfection supernatant set 1.
In assay [2] the target is T2, hemagglutinin (HA) of influenza A/Japan/305/57 H2N2 (Influenza A virus A/Japan/305/1957 …, UniProt P03451 16-562). Described as above.
For assay [3], the target named is T1, hemagglutinin (HA) of influenza …. As to the kind of experiment: ELISA, inactivated whole virions coated; transfection supernatant set 2. (An ELISA detects its analyte on a solid surface through an enzyme-linked reagent.)
Assay [4] has as its target T2, hemagglutinin (HA) of influenza …. The description is as above.
Assay [5] addresses T1, hemagglutinin (HA) of influenza …. As to the kind of experiment: ELISA, inactivated whole virions coated; transfection supernatant set 3.
Assay [6] has as its target T2, hemagglutinin (HA) of influenza …. The assay is described as above.
Assay [7] concerns the target T1, hemagglutinin (HA) of influenza …. Put plainly: ELISA, inactivated whole virions coated; transfection supernatant set 4.
Assay [8] deals with T2, hemagglutinin (HA) of influenza …. Described as above.
Assay [9] deals with T1, hemagglutinin (HA) of influenza …. Put plainly: ELISA, inactivated whole virions coated; transfection supernatant set 5.
In assay [10] the target is T2, hemagglutinin (HA) of influenza …. The assay is described as above.
In assay [11] the target is T1, hemagglutinin (HA) of influenza …. Put plainly: cell-based or functional assay.

B1: TCN-504 (3251_K17) (antibody, V domains shown)
VH: QVQLQESGPGLVKPSETLSLTCAVSGVSISNIDFYWGWIRQPPGKGLEWIGNIYYTGITFYNPSLSSRVAISIDTSKNQFSLTLTSVTAADTAMYYCARHYGDSEAINDAFDIWGQGTMLTVSS
VL: EIVMTQSPATLSVSPGERATLSCRASQSVGNSLAWYQQRPGQAPRLLIYGASTRATGIPPRFSGSGSGTEFTLTISSLQTEDFAVYYCQQYINWRPLSFGGGTKVEIK
As for B1, the OD450 in [1] worked out at 3.65 OD450; in assay [2] it was 3.65 OD450; in [3] it was 3.65 OD450; in [4] it was 3.62 OD450; in assay [5], 3.63 OD450; in [6], 3.64 OD450. The OD450 in [7] was 3.52 OD450; in assay [8] it was 3.51 OD450; in assay [9] it was 3.6 OD450; in assay [10], 3.59 OD450.

B2: TCN-523 (5248_A17) (antibody, V domains shown)
VH: QVQLVQSGAEVKKPGSSVKVSCKASGGSFSNYAFSWVRQAPGQGLEWMGGTIPLLGTTNYAQKFQGRVTISADQFTSTAYMELGSLRSEDTAVYYCTRRKMTTAFDSWGQGTLVTVSS
VL: QPVLTQPPSASASLGASVTLTCTLSSAYSNYKVDWYQQRPGKGPRFVMRVGTGGIVGSKGDGIPDRFSVLGSGLNRYLTIKNIQEEDESDYHCGADHGSGSNFVSPYVFGGGTKLTVL
Consider B2, for which, in [11], the “% Neutralization” value turned out to be 69%. In addition, the OD450 in assay [1] amounted to 3.59 OD450; in assay [2], 1.69 OD450; in assay [3], 3.67 OD450; in [4] it was 1.39 OD450; in [5] it was 3.59 OD450; in assay [6] it was 3.47 OD450. Further, the OD450 came out at 3.43 OD450 in assay [7], 1.73 OD450 in assay [8], 3.62 OD450 in [9] and 2.56 OD450 in assay [10].
